In assay [1] the target is GDF8 protein (R&D Systems Inc., Minneapolis, Minn.) (UniProt O14793). The experiment in a line: cell-based or functional assay.
For assay [2], the target named is DJ1 peptide (GDF8 residues 267-286) (human). As to the kind of experiment: ELISA, peptide coated 500 ng/well; MAB 788 10 mg/ml diluted 1:20. A general note: In an ELISA, binding on a coated surface is turned into a signal by an enzyme label.
Assay [3] addresses DJ2 peptide (GDF8 residues 282-301) (human). The assay is described as above.
Assay [4] has as its target DJ3 peptide (GDF8 residues 297-316) (human). The assay is described as above.
Assay [5] has as its target DJ4 peptide (GDF8 residues 312-331) (human). The description is as above.
Assay [6] deals with DJ5 peptide (GDF8 residues 327-346) (human). The assay is described as above.
The target in assay [7] is DJ6 peptide (GDF8 residues 342-361) (human). Described as above.
Assay [8] has as its target DJ7 peptide (GDF8 residues 357-375) (human). The description is as above.
Assay [9] has as its target DJ1 peptide (GDF8 residues 267-286) (human). The experiment in a line: ELISA, peptide coated 500 ng/well; MAB 788 10 mg/ml diluted 1:40.
In assay [10] the target is DJ2 peptide (GDF8 residues 282-301) (human). Described as above.
Assay [11] concerns the target DJ3 peptide (GDF8 residues 297-316) (human). The assay is described as above.
For assay [12], the target named is DJ4 peptide (GDF8 residues 312-331) (human). The description is as above.
The target in assay [13] is DJ5 peptide (GDF8 residues 327-346) (human). Described as above.
In assay [14] the target is DJ6 peptide (GDF8 residues 342-361) (human). The description is as above.
Assay [15] addresses DJ7 peptide (GDF8 residues 357-375) (human). The assay is described as above.
Assay [16] has as its target DJ1 peptide (GDF8 residues 267-286) (human). As to the kind of experiment: ELISA, peptide coated 500 ng/well; MAB 788 10 mg/ml diluted 1:80.
In assay [17] the target is DJ2 peptide (GDF8 residues 282-301) (human). The description is as above.
The target in assay [18] is DJ3 peptide (GDF8 residues 297-316) (human). The assay is described as above.
The target in assay [19] is DJ4 peptide (GDF8 residues 312-331) (human). The description is as above.
For assay [20], the target named is DJ5 peptide (GDF8 residues 327-346) (human). The assay is described as above.
The target of assay [21] is DJ6 peptide (GDF8 residues 342-361) (human). The assay is described as above.
Assay [22] deals with DJ7 peptide (GDF8 residues 357-375) (human). The description is as above.
In assay [23] the target is purified GDF8 prohormone with C-terminal FLAG epitope (GDF8 prohormone-FLAG fusion protein) (human) (UniProt O14793). As to the kind of experiment: ELISA, purified GDF8 prohormone coated 250 ng/well; MAB 788 10 mg/ml diluted 1:20.
For assay [24] the target is unchanged. The experiment in a line: ELISA, purified GDF8 prohormone coated 250 ng/well; MAB 788 10 mg/ml diluted 1:40.
Assay [25] has the same target. The experiment in a line: ELISA, purified GDF8 prohormone coated 250 ng/well; MAB 788 10 mg/ml diluted 1:80.

Chain of DJ6 peptide (GDF8 residues 342-361) (human) (peptide, as listed by the source): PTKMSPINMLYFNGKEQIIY
Chain of DJ2 peptide (GDF8 residues 282-301) (human) (peptide, as listed by the source): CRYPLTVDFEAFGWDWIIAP
Chain of DJ3 peptide (GDF8 residues 297-316) (human) (peptide, as listed by the source): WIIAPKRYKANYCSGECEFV
Chain of DJ4 peptide (GDF8 residues 312-331) (human) (peptide, as listed by the source): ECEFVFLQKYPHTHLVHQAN
Chain of DJ5 peptide (GDF8 residues 327-346) (human) (peptide, as listed by the source): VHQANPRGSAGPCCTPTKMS
Chain of DJ1 peptide (GDF8 residues 267-286) (human) (peptide, as listed by the source): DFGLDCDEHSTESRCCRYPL

“Rat monoclonal antibody 788 (R&D Systems Inc., Cat. No. MAB788)” had a % Inhibition of GDF8 Activity (0.1 µg IgG), A204 CAGA-luciferase transcriptional activation assay in assay [1] of 0%. The substance further gave a % Inhibition of GDF8 Activity (1.8 µg IgG), A204 CAGA-luciferase transcriptional activation assay in assay [1] of 0%. Also, in [1], the % Inhibition of GDF8 Activity (3.1 µg IgG), A204 CAGA-luciferase transcriptional activation assay turned out to be 7%. In addition, the % Inhibition of GDF8 Activity (6.3 µg IgG), A204 CAGA-luciferase transcriptional activation assay in assay [1] was determined as 17%. The same substance came in with a % Inhibition of GDF8 Activity (12.5 µg IgG), A204 CAGA-luciferase transcriptional activation assay in [1] of 47%. The OD 405/minute × 1000 (OD 405/minute × 1000) in assay [2] is 4; in [3] it was 0; in [4], 0; in [5] it was 0; in assay [6], 133; in assay [7], 0. Moreover, the OD 405/minute × 1000 (OD 405/minute × 1000) in [8] amounted to 0; in assay [9] it was 0; in [10], 0; in assay [11], 0; in assay [12], 0; in [13], 118. The OD 405/minute × 1000 (OD 405/minute × 1000) in assay [14], in assay [15], in assay [16], in [17], in assay [18] and in [19] was 0 throughout. Besides, the OD 405/minute × 1000 (OD 405/minute × 1000) amounted to 102 in assay [20]; 0 in [21]; 0 in assay [22]; 132 in [23]; 127 in [24]; 132 in assay [25].

“normal goat IgG (negative control purified from non-immunized goat sera) (antibody)” displayed a % Inhibition of GDF8 Activity (250 µg IgG), A204 CAGA-luciferase transcriptional activation assay in assay [1] of 0%.

The values are drawn from patent US20090311282A1.
